The results in this text go back to patent US20250136713A1 (DENALI THERAPEUTICS, published 2025).

B1: Anti-HER2_D4 light chain control (SEQ ID NO: 87) paired with Anti-HER2_D2 heavy chain control (SEQ ID NO: 92) (antibody, human IgG1, kappa, V domains shown)
VH: EVQLVESGGGLVQPGGSLRLSCAASGFTFTDYTMDWVRQAPGKGLEWVADVNPNSGGSIYNQRFKGRFTLSVDRSKNTLYLQMNSLRAEDTAVYYCARNLGPSFYFDYWGQGTLVTVSS
VL: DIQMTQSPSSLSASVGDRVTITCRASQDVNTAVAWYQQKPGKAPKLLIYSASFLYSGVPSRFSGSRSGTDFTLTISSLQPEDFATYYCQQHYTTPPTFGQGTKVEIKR
B2: Anti-HER2_D2 heavy chain comprising the VH region of SEQ ID NO: 2 paired with Anti-HER2_D4 light chain control (SEQ ID NO: 87) (antibody, V domains shown)
VH: EVQLVESGGGLVQPGGSLRLSCAASGFTFTDYTMDWVRQAPGKGLEWVADVNPNSGGSIYNQRFKGRFTLSVDRSKNTLYLQMNSLRAEDTAVYYCARNLGPLFYFDYWGQGTLVTVSS
VL: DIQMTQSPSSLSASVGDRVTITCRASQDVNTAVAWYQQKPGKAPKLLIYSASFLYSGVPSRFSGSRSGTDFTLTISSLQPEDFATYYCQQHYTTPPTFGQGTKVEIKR
B3: Anti-HER2_D2 heavy chain comprising the VH region of SEQ ID NO: 63 paired with Anti-HER2_D4 light chain control (SEQ ID NO: 87) (antibody, V domains shown)
VH: EVQLVESGGGLVQPGGSLRLSCAASGFHFTDYTMDWVRQAPGKGLEWVADVNPNSGGSIYNQRFKGRFTLSVDRSKNTLYLQMNSLRAEDTAVYYCARNLGPSFYFDYWGQGTLVTVSS
VL: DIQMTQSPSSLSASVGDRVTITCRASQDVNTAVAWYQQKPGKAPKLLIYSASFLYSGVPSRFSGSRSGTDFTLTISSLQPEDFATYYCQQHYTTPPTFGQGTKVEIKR
B4: Anti-HER2_D2 heavy chain comprising the VH region of SEQ ID NO: 70 paired with Anti-HER2_D4 light chain control (SEQ ID NO: 87) (antibody, V domains shown)
VH: EVQLVESGGGLVQPGGSLRLSCAASGFTFTDYTMDWVRQAPGKGLEWVADVNPNSGGSIYNQRFKGRFTLSVDRSKNTLYLQMNSLRAEDTAVYYCARNLGPYFYFDYWGQGTLVTVSS
VL: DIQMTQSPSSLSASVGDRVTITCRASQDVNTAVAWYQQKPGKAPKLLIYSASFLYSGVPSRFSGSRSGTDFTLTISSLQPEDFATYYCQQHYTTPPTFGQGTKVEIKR
B5: Anti-HER2_D2 heavy chain comprising the VH region of SEQ ID NO: 69 paired with Anti-HER2_D4 light chain control (SEQ ID NO: 87) (antibody, V domains shown)
VH: EVQLVESGGGLVQPGGSLRLSCAASGFTFTDYTMDWVRQAPGKGLEWVADVNPNSGGSIYNQRFKGRFTLSVDRSKNTLYLQMNSLRAEDTAVYYCARNLGPDFYFDYWGQGTLVTVSS
VL: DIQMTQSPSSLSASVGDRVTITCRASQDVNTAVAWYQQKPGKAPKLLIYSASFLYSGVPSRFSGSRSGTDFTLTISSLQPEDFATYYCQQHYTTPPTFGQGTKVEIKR
B6: Anti-HER2_D2 heavy chain comprising the VH region of SEQ ID NO: 60 paired with Anti-HER2_D4 light chain control (SEQ ID NO: 87) (antibody, V domains shown)
VH: EVQLVESGGGLVQPGGSLRLSCAASGFNFTDYTMDWVRQAPGKGLEWVADVNPNSGGSIYNQRFKGRFTLSVDRSKNTLYLQMNSLRAEDTAVYYCARNLGPSFYFDYWGQGTLVTVSS
VL: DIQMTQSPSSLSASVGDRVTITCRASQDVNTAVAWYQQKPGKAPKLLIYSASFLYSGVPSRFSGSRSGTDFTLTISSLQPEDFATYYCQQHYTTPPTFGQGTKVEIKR
B7: Anti-HER2_D2 heavy chain comprising the VH region of SEQ ID NO: 66 paired with Anti-HER2_D4 light chain control (SEQ ID NO: 87) (antibody, V domains shown)
VH: EVQLVESGGGLVQPGGSLRLSCAASGFTFTDYTMDWVRQAPGKGLEWVADVNPNSGGSIYNTRFKGRFTLSVDRSKNTLYLQMNSLRAEDTAVYYCARNLGPSFYFDYWGQGTLVTVSS
VL: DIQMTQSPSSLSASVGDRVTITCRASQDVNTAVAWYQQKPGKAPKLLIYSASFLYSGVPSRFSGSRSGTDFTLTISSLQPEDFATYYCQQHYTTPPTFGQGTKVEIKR
B8: Anti-HER2_D2 heavy chain comprising the VH region of SEQ ID NO: 61 paired with Anti-HER2_D4 light chain control (SEQ ID NO: 87) (antibody, V domains shown)
VH: EVQLVESGGGLVQPGGSLRLSCAASGFKFTDYTMDWVRQAPGKGLEWVADVNPNSGGSIYNQRFKGRFTLSVDRSKNTLYLQMNSLRAEDTAVYYCARNLGPSFYFDYWGQGTLVTVSS
VL: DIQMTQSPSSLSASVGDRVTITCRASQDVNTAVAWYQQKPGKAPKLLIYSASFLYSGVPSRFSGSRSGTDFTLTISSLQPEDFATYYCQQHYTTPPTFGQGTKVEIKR
B9: Anti-HER2_D2 heavy chain comprising the VH region of SEQ ID NO: 62 paired with Anti-HER2_D4 light chain control (SEQ ID NO: 87) (antibody, V domains shown)
VH: EVQLVESGGGLVQPGGSLRLSCAASGFMFTDYTMDWVRQAPGKGLEWVADVNPNSGGSIYNQRFKGRFTLSVDRSKNTLYLQMNSLRAEDTAVYYCARNLGPSFYFDYWGQGTLVTVSS
VL: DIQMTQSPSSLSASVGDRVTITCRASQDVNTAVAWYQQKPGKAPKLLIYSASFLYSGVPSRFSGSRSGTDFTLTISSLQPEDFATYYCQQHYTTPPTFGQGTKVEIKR
B10: Anti-HER2_D2 heavy chain comprising the VH region of SEQ ID NO: 67 paired with Anti-HER2_D4 light chain control (SEQ ID NO: 87) (antibody, V domains shown)
VH: EVQLVESGGGLVQPGGSLRLSCAASGFTFTDYTMDWVRQAPGKGLEWVADVNPNSGGSIYNQRFKGRFTLSVDRSKNTLYLQMNSLRAEDTAVYYCARNLGPWFYFDYWGQGTLVTVSS
VL: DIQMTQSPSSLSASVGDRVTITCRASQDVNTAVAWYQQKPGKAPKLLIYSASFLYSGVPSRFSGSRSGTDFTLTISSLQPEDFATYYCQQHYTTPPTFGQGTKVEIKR
B11: Anti-HER2_D2 heavy chain comprising the VH region of SEQ ID NO: 65 paired with Anti-HER2_D4 light chain control (SEQ ID NO: 87) (antibody, V domains shown)
VH: EVQLVESGGGLVQPGGSLRLSCAASGFTFTDYTMDWVRQAPGKGLEWVADVNPNSGGSIYNHRFKGRFTLSVDRSKNTLYLQMNSLRAEDTAVYYCARNLGPSFYFDYWGQGTLVTVSS
VL: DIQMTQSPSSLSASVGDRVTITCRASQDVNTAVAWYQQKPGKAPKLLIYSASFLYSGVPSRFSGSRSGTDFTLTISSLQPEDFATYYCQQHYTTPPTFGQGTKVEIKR
B12: Anti-HER2_D2 heavy chain comprising the VH region of SEQ ID NO: 1 paired with Anti-HER2_D4 light chain control (SEQ ID NO: 87) (antibody, V domains shown)
VH: EVQLVESGGGLVQPGGSLRLSCAASGFTFTDYTMDWVRQAPGKGLEWVADVNPNSGQSIYNQRFKGRFTLSVDRSKNTLYLQMNSLRAEDTAVYYCARNLGPSFYFDYWGQGTLVTVSS
VL: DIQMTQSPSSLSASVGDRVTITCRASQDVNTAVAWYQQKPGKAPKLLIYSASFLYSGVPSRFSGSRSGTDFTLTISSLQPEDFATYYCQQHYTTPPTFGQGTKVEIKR
B13: Anti-HER2_D2 heavy chain comprising the VH region of SEQ ID NO: 64 paired with Anti-HER2_D4 light chain control (SEQ ID NO: 87) (antibody, V domains shown)
VH: EVQLVESGGGLVQPGGSLRLSCAASGFTFTDYTMDWVRQAPGKGLEWVADVNPNSGGSIYNRRFKGRFTLSVDRSKNTLYLQMNSLRAEDTAVYYCARNLGPSFYFDYWGQGTLVTVSS
VL: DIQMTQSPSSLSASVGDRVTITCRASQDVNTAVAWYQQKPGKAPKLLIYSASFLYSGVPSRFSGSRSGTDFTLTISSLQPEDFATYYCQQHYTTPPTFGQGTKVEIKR
B14: Anti-HER2_D2 heavy chain comprising the VH region of SEQ ID NO: 68 paired with Anti-HER2_D4 light chain control (SEQ ID NO: 87) (antibody, V domains shown)
VH: EVQLVESGGGLVQPGGSLRLSCAASGFTFTDYTMDWVRQAPGKGLEWVADVNPNSGGSIYNQRFKGRFTLSVDRSKNTLYLQMNSLRAEDTAVYYCARNLGPFFYFDYWGQGTLVTVSS
VL: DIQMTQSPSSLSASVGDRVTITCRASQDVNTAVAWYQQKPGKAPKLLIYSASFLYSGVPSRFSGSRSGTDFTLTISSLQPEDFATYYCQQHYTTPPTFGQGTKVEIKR
B15: SEQ ID NO: 10 light chain paired with anti-HER2_D2 heavy chain comprising the VH region of SEQ ID NO: 3 (antibody, V domains shown)
VH: EVQLVESGGGLVQPGGSLRLSCAASGFTFTDYTMDWVRQAPGKGLEWVADVNPNSGQSIYNQRFKGRFTLSVDRSKNTLYLQMNSLRAEDTAVYYCARNLGPLFYFDYWGQGTLVTVSS
VL: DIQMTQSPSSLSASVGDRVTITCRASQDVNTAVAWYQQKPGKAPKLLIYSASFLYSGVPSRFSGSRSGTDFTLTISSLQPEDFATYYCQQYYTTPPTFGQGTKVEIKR
B16: SEQ ID NO: 10 light chain paired with anti-HER2_D2 heavy chain comprising the VH region of SEQ ID NO: 1 (antibody, V domains shown)
VH: EVQLVESGGGLVQPGGSLRLSCAASGFTFTDYTMDWVRQAPGKGLEWVADVNPNSGQSIYNQRFKGRFTLSVDRSKNTLYLQMNSLRAEDTAVYYCARNLGPSFYFDYWGQGTLVTVSS
VL: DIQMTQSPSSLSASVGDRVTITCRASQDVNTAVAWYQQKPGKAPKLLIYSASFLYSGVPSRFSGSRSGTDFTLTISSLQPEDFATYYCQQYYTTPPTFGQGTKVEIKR
B17: SEQ ID NO: 10 light chain paired with anti-HER2_D2 heavy chain comprising the VH region of SEQ ID NO: 2 (antibody, V domains shown)
VH: EVQLVESGGGLVQPGGSLRLSCAASGFTFTDYTMDWVRQAPGKGLEWVADVNPNSGGSIYNQRFKGRFTLSVDRSKNTLYLQMNSLRAEDTAVYYCARNLGPLFYFDYWGQGTLVTVSS
VL: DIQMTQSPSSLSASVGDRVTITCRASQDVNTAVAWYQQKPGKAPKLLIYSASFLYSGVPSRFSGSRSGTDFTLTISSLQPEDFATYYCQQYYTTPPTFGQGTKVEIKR
B18: Anti-HER2_D2 light chain control (SEQ ID NO: 94) paired with Anti-HER2_D4 heavy chain control (SEQ ID NO: 93) (antibody, human IgG1, kappa, V domains shown)
VH: not shown
VL: DIQMTQSPSSLSASVGDRVTITCKASQDVSIGVAWYQQKPGKAPKLLIYSASYRYTGVPSRFSGSGSGTDFTLTISSLQPEDFATYYCQQYYIYPYTFGQGTKVEIKR
B19: SEQ ID NO: 10 light chain paired with Anti-HER2_D2 heavy chain control (SEQ ID NO: 92) (antibody, human IgG1, kappa, V domains shown)
VH: EVQLVESGGGLVQPGGSLRLSCAASGFTFTDYTMDWVRQAPGKGLEWVADVNPNSGGSIYNQRFKGRFTLSVDRSKNTLYLQMNSLRAEDTAVYYCARNLGPSFYFDYWGQGTLVTVSS
VL: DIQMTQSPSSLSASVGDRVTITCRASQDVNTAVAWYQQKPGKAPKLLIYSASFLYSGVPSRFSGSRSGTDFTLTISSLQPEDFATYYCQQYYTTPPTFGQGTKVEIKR
B20: SEQ ID NO: 9 light chain paired with Anti-HER2_D2 heavy chain control (SEQ ID NO: 92) (antibody, human IgG1, kappa, V domains shown)
VH: EVQLVESGGGLVQPGGSLRLSCAASGFTFTDYTMDWVRQAPGKGLEWVADVNPNSGGSIYNQRFKGRFTLSVDRSKNTLYLQMNSLRAEDTAVYYCARNLGPSFYFDYWGQGTLVTVSS
VL: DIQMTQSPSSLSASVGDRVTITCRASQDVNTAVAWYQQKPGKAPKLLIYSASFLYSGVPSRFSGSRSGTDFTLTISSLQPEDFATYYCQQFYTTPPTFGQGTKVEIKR

One test addresses T1, recombinant HER2 extracellular domain (ECD) (human, UniProt P04626 23-652).
T1 construct: extracellular domain; also called HER2 ECD
In words: SPR (Biacore 8K), antibody captured by anti-human Fab, HER2 ECD injected, 1:1 fit; LC SEQ ID NO: 87 paired with Anti-HER2_D2 heavy chain control (SEQ ID NO: 92). Background: In SPR one partner is held on a chip, and binding of the other changes the refractive index at the surface.
Procedure: (§1) HER2 extracellular domain (ECD) binding affinities of engineered anti-HER2 antibodies were measured by SPR using a Biacore 8K instrument. Antibodies were captured on Biacore™ Series S CM5 sensor chips immobilized with mouse anti-human Fab (human Fab capture kit from GE Healthcare) followed by injections of serial 3-fold dilutions of recombinant HER2 ECD at a flow rate of 30 μL/min. Each sample was analyzed using a 3-minute association followed by a 10-minute dissociation. After each injection, the sensor chip was regenerated using a 50 mM glycine pH2.0 regeneration buffer. A 1:1 Languir model of simultaneous fitting of kₒₙ and koff was used for kinetics analysis.
By Kd is commonly meant the equilibrium constant for the complex coming apart. Consider B1, for which the Kd was determined as 41 nM.

The target of a further test is T1, recombinant HER2 extracellular domain …. In words: SPR (Biacore 8K), antibody captured by anti-human Fab, HER2 ECD injected, 1:1 fit.
Procedure: as §1
Take B2: the equilibrium dissociation constant (Kd) turned out to be 28 nM.

For the molecule B3, the Kd was 22.1 nM. For B4, the Kd amounted to 30 nM. B5: the dissociation constant Kd was found to be 10.2 nM. Same read-out and setting: to B6 belongs 28 nM; to B7, 32.3 nM; to B8, 17.5 nM. On to B9, for which the equilibrium dissociation constant (Kd) was 18.3 nM. On the same count and under the same terms, the figure for B10 is 6.1 nM. B1: the Kd is 42 nM.

Consider B11, for which the Kd was 35 nM. On to B12, for which the equilibrium dissociation constant (Kd) came out at 28 nM. Regarding B13, the Kd was 21 nM. On the same count and under the same terms, to B14 belongs 9.8 nM.

The next test shares this target. The test is described as above. The source holds these as a separate data set.
Procedure: as §1
As for B15, the dissociation constant Kd amounted to 2.1 nM. Same read-out and setting: to B16 belongs 4.2 nM; to B17, 6.2 nM.

Another test shares this target. In words: SPR (Biacore 8K), antibody captured by anti-human Fab, HER2 ECD injected.
B18: the binding result was “no binding”.

Another test shares this target. In words: SPR (Biacore 8K), antibody captured by anti-human Fab, HER2 ECD injected, 1:1 fit. The source holds these as a separate data set.
Procedure: as §1
On to B19, for which the Kd was 14 nM.

B20: the dissociation constant (Kd) came to 13 nM.
